Laboratory results: a protein production outcome set (Wang et al. 2014)

Assay: label from the status in PepcDB records

Sequence: MKLSFSLPSKSKPKVTATTADGNNAVDDGTSKEFVTEFDPSKTLANSIPKYVIPPIENTWRPHKKMKNLDLPLQSGNAGSGLEFEPEVPLPGTEKPDNISYGLNLRQKVKDDSIGGDAVEERKVSMGEQLMLQSLRRDLMSLADDPTLEDFESVPVDGFGAALMAGYGWKPGKGIGKNAKEDVEIKEYKKWTAKEGLGFDPDRSKVVDVKAKVKESVKLDKKGVGINGGDVFFVGKEVRIIAGRDVGLKGKIVEKPGSDFFVIKISGSEEEVKVGVNEVADLGSKEEEKCLKKLKDLQLNDREKDKKTSGRGRGAERGSRSEVRASEKQDRGQTRERKVKPSWLRSHIKVRIVSKDWKGGRLYLKKGKVVDVVGPTTCDITMDETQELVQGVDQELLETALPRRGGPVLVLSGKHKGVYGNLVEKDLDKETGVVRDLDNHKMLDVRLDQVAEYMGDMDDIEY
- protein production: failed

Sequence: MKLSIHGRKITLTDAIRKYAEEKISKVEKFNDSIIKIDATLAASKLKTGNAHVTEILAYLSGSTLKATATESDLYASIDKAVDIMESLLKKHKEKRSRAKVQDDTRKKSYSFDYIVEPEEKLSDEKKLVRVYLPLKPMEISEAILQLEYLNRVFFAFTNTTTGKMAVVYKRKDGDYGVIED
- protein production: failed

Sequence: MKLSINDLNVFVNTPKDIAKLCEDLSRLGLEVESCIPCIAPKNVVVGKILEKAPHKNAEKLSVCQVDVGKEVLQIVCGAKNVAPNQFVPVALNGALIGSTTIAKTELRGVESHGMICSSIELGFPKINDGILELDESVGELVLGKELNEYAPFNTHVLEISLTPNRGDCLSVLGIAREISAFYHTPLKPIKALNFTPKSGLITLSAGENIESHLAYYLICNHSLKTPLNIKLSLAHNNALSENDLNNFIEFSTHFSGVIMNAYSLNTTPMDLSVKNDENNLESVYINHQKRSTIAIKHQVQKDLSECLLLEASYTDPISLSLKLHALKDKTLQKDNALIYRSARGSNPNLSDGLNFLSAHLKATILESKQTEHSLKDRTLTFQLEDITEILGLAVEKEKIQGILKNLGFKVSVKEPNSKPQILEVIAPNFRHDIKTIQDIAEEILRFVGIDNLVSKPLHCVSSKNSNPNYDTHRFFENLKHKALACGFKEVIHYVFYSKEKQQKLGFEVLEDPLELQNPITTELNTLRTSLVCGLLDASLRNKNLGFKSIALYEKGSVYNSKREEIQKLGFLISGLQKKESYPDTKGKAWDFYSFAECVSKVIGDFSLEKLTTQTPINHPYQSAKIIQNHEIIGVIAKIHPKVIQELDLFESYYAEIDAFKLKRPAMLLKPFSIYPSSVRDLTLIIDENTAFSGIKKALKDAQIPNLSEILPLDIFKESNNSIALSVRCVIHSLEKTLNDEEVNSAVQKALEILEKEFNARLKG
- protein production: failed

Sequence: MKLTIIRLENFSDQDRIDLQKIWPEYSPSSLQVDDNYRIYAARFNERLLAAVRVTLSGTEGALDSLRVREVTRRRGVGQYLLEEVLRNNPDVSCWWMADAGVEDRGVMTAFMRALGFTAQQGGWEKH
- protein production: failed

Sequence: MKLVCISDTHSLHRRIPEIPDGDVLIHAGDSLGQGSLENIEDLNDWLGTLPHRHKIVIAGNHDWAFQEMPGEARTALSNAVYLEDSGVEIEGNRFWGSPWTPTFMDWAFMLERGEPLYQKWQLVPDNTDVLITHGPPKGIGDEANLGFKCQNVGCVDLLARIHQLSLKAHIFGHIHEGYGEYLRGKTRLINASTCTARYEPRNAPIVVDVLEHHHHHH
- protein production: failed

Sequence: MKLVFVTVNYNNIDETRKVLNCFSGLSHGENSVLYVVDNSDSKSECQSLDKENTNNKIKFLYPKENLGYLTGASFGVDFHYNNHGFDFDYLIILNNDIIFNVNEVLKSLEIFSQNNDAMMISPLVIDRGVNVNPYLTVRKSKRYMMFWNFILSNFFTFKVFHKINKYRALLSSKNNFSSTVQPFQKIYGSHGSVFILKNEYFLRGGSLRRLPFLYGEEIYIAEQVRKLGGDCVYYPSIKFEHKGSATLGNDTSRFKYLCIKQGHSFLYREFYS
- protein production: failed

Sequence: MKLVTISGPPSSGKTAVLAGVIRAMMASGLKVGALKYDCLATNDDDVFRAIGVPVQTGLSGNLCPDHYFVSNIEECLDWGIREGFDFLLSESAGLCNRCAPHIKGVLAVCVIDNLMGATTPKKIGPMLKYADIVVITKGDIVSQAEREVFAFQVRRANPRAKIMHVNGITGQGAGELASQFLLAPETTCLDGSRLRFSMPAALCSYCLGETRIGMEFQLGNVKKIKMSEEPARLEHHHHHH
- protein production: not failed

Sequence: MKLYKLLILDIDGTLRDEVYGIPESAKHAIRLCQKNHCSVVICTGRSMGTIQDDVLSLGVDGYIAGGGNYIQYHGELLYNQSFNQRLIKEVVCLLKKREVAFSIESQEKVFMNQKAKEIFETMNQLKGTNSCINKQHIQEKITYENNIEEYKSQDIHKICLWSNEKVFDEVKDILQDKMELAQRDISSQYYEIIQKDFHKGKAIKRLQERLGVTQKETICFGDGQNDIVMFQASDVTIAMKNSHQQLKDIATSICEDIFDNGIYKELKRRNII
- protein production: not failed

Sequence: MKMANHPRPGDIIQESLDELNVSLREFARAMEIAPSTASRLLTGKAALTPEMAIKLSVVIGSSPQMWLNLQNAWSLAEAEKTVDVSRLRRLVTQSTP
- protein production: not failed

Sequence: MKMHRDSISLNSYEEMAEYYFSYVDQKPFNAYYERPATLSLLPDVAGKRVLDAGCAAGWYTQWLLDKGAAVTAVDFSAGMIEMTRKRVGERAEIIRADLNEPLDFMAKESCDIVLSSLALHYLKDWTLVMSEFHRILAKGGLLIFSVHHPFMDFTVFQRDNYFLTELLDDEWETQKGKVKVQFYRRPLSQILSAVLEAGFLLEKVLEPMPTEEFKSAQPDAYRRLTYKPQFLFLRARKP
- protein production: failed

Sequence: MKMKHMKPYTTMKTVLSTLAIALAFGPLHNAQACTRILYETGNQSYISGRSMDWADPSAATALWVFPKGMKRDGTVGDNPIKWSAKYGSIIVSFYDAGTADGMNEKGLVANMLYLKEAKWGDATKAGKPTLTAGAWAQYFLDNYATVEEAVTAMANPPFTIIAPSLPNGDAAALHLSISDVNGDSAIFEYIDGKLVIHHGSQYKVMTNSPTFDQQLALNTYWQQIGGSKFLPGTINAADRFVRASYALSASPKYRDNDLALASVFSQIRAVSVPLGITDPDRPNLAMTLWRTFADHTAKIYYFESAVFPAVSWLDMSKVDLTEGAAPKVVRVERGQPLAGELSAALKPAEPFKWLGAE
- protein production: failed

Sequence: MKMKILGISFGTKNGNNDTMCKVALKGAKEAGAEVEFIQMSSINIKHCTGCCACVKTLLSGKGSMCVLKDDFEWLLDKMKDADGIVVSDPIFEEGASGLFHTIMDRFGPRADRGNNIIGTKVAEAIGGKIPDSRMLNDKVISFMGIGGSDWGTRVQCEHAMLALIPMWKVIDNAWFPWAKELVMDDTRLVQVHQIGLNIVEAAKDFEKASYQGEEGVCPHCHNRLFYLEPGTKKAICALCGIVGELDTISGKTIFSFPEEQLGHAHDTLPGKFIHGDDIKKMEGHYAEVRKTQEFKERKTSYNFIETLTKEKQAGVSLG
- protein production: failed

Sequence: MKMKSKTKSCCQYTQWVVLALLTLIFASCKDNDDATGDFDPNKPVVISEFSPKEGGLGTRMLLYGENFGSDISKIKVTIGGQDSKVVGAKGKSLYCVVPAKAYDGDIKLSILNDEGEEIANTEANEKFVYQKKMLVTTFLGTMYDGNTKYDLKDGPFDDCGGFGGAVWLSFDPKNHNHLYLVGEQHPTRLIDFEKEYVSTVYSGLSKVRTICWTHEADSMIITNDQNNNDRPNNYILTRESGFKVITELTKGQNCNGAETHPINGELYFNSWNAGQVFRYDFTTQETTPLFTIQDSGWEFHIQFHPSGNYAYIVVVNQHYILRSDYDWKTKRLTTPYIVCGQQGAKDWVDGVGKKARMHAPRQGTFVKNPAYKGSSDEYDFYFCDRENHCIRILTPQGRVTTFAGRGSNGTSGYNDGDLRQEARFNHPEGIVYDEERECFFIGDRENRRIRKIGYEE
- protein production: failed

Sequence: MKMSELEKMLKGEHFDGASAEIEALRSQAGRLKLEINQSLDEAERYALQRELFGHLGHKSCVQPPFHCEFGKTIRIGDHTFINMNVVMLDGAPITIGDHVLIGPSTQFYTASHSLDYRRRQAWETICKPIVIEDDVWIGGNVVINQGVTIGARSVVAANSVVNQDVPPDTLVGGTPARILRSLKDPAESMAE
- protein production: not failed

Sequence: MKNDLFTEIIGQHTAKLLLTEAIERNQIAPAYLFSSEVEGVGKGKIALAFANAILSRGSRSAMAKHLPPPKGDAQGTASAGESKHLDILQIKPTYTENTSQQKSVPAIRVEQMREVIEFLSTSAVEGKQKVVIIYEADMLNPTAANKLLKTLEEPKTGTFILISSYPQKLLPTIKSRCQIIPFQRLTDEEVISVLKDQQIEATEKILAISSGSPGQAIANIKMLASISQEITKELEVPPDDILKALSLSNSISSWNHQTQLWLLTYLQYNWWQKLKSTKLLAKFTQARKQLLHHVTPRSVWDSLLLP
- protein production: failed

Sequence: MKNEPIYNLLNSINSPDDLRRLEVDQLPEVCDELRQDIIKELSCNPGHFAASLGTVELTVALHYVYNTPYDRIVWDVGHQAYGHKILTGRREAFSTNRKLGGIRPFPSPEESEYDTFTCGHASNSISAALGMAVAAAKKGDDQRHVIAIIGDGSMSGGLAFEGLNNSSTTPNNLLIILNDNDMAIDRSVGGMKQYLFNLTTSNRYNQLRFKASRLLFKLGILNDERRKALIRFGNSLKSMAAQQQNIFEGMNIRYFGPIDGHDIKNLSRVLRDIKDLKGPKILHLHTIKGKGFAPAEKHATEWHAPGKFDPVTGERFVANTEGMPPLFQDVFGNTLVELAEANPRIVGVTPAMPSGCSMNILMSKMPKRAFDVGIAEGHAVTFSGGMAKDGLQPFCNIYSSFMQRAYDNIIHDVAIQNLPVVLCLDRAGLVGEDGPTHHGAFDMAYLRPIPNLTIASPMNEHELRRLMYTAQLPDKGPFVLRYPRGRGVLVDWKCPLEEIPVGKGRKLKDGKDIAVISIGPIGNKARSAIARAESESGRSIAHYDLRFLKPLDEELLHEVGRTFRHIVTIEDGTIQGGMGSAVLEFMADHEYTPTVKRIGIPDKFVQHGTVAELYQLCGMDEDSLTKELLKQCELLPDMSKIKELTN
- protein production: failed

Sequence: MKNETLHTQEDIIKMLDSLLRPAEPFWNEFYANREKDVPFFENVPDENLVSYIQKKRVSKGKVLELGCGPGRNAIYLANEGFDVTAVDVSIEGINWAKERALAKGVEIEFICDSIFNLEVQNEFDFVYDSGCLHHIPPHRRVNYVDLIKNALKSGGYFGLTCFAAGDLDERNGSEITDWDVYRGWSLQGGLAYSEEKLREIFKGFEVIEIRKMEQIEQPNTMFGESFLWTALFKKNLEHHHHHH
- protein production: not failed

Sequence: MKNFLETIEDMILIINREGRLLYANTAVPKKLGYPHEELMSMHILTITSAGKMAEGEKILAELFAGKKESLPLSLEKKEGTSIPAKARIWQGKWHNEPCLFAIIKDLSKEERALEHHHHHH
- protein production: not failed

Sequence: MKNIVPPADIILNMLNEKPGADLDLLDFYKGYIRRASIEPSYSEEGFDKGKHINEDLRQEIEIAFLKGLVSLRHNICKKGSTVLIIVPSKSWFDLEHHHHHH
- protein production: failed

Sequence: MKNLNYGIIGLGKFGSVVADELIAGGHTVIVADKDEEALKSIQNPPSYAYILDSTNISALKEAGFHDVEVVIVSIGENVEKSILTLMALKDIGVKNIIAKATSNIHGQILSKLGATKVIYPEKESAKRLVKEFLTKDADYEVFDLSANTIRAIKINIDEKLAGNSLKHVAQNMKVISYKKLNSDWEILPDLETTTVYSGDVVILLGTVKELREFEH
- protein production: failed

Sequence: MKNPVPRIIKTPVIAMYHDDRREELTIEVELSDVKDENITLMMHENSFYIKAFSETVEYLGSFFLDGPVDPEKAVAANNNGMLTIKVPYKEGFTCARFIHVD
- protein production: failed

Sequence: MKNSEESSSSSEDTNNATDTNTSESQDISVNGPEKVGDVYEIDGGTAKVMAISNKETTVKTGPIQFTVKKVIAAVANEQLPFIDVQIESENTSDEVVRFRPSLAQLATSTGVQIDEPSLLESDRLLDEYVGKVNDSGSIIYVFDNEEDIKDLESIRLRISSPFNEDLKNLGDKLDLKINLEHLEHHHHHH
- protein production: not failed
